In US20250296971A1, “GASTRIC INHIBITORY PEPTIDE RECEPTOR LIGANDS” (priority 2021, published 2025):
*1 amine or outer side, *2 acyl side, *3 side chain or, on linkers, in order; H or OH if unused. Bridges are numbered along the chain shown (N, C = ends). Primed or numbered codes have the meaning given here. Where no end group is shown, it is not given here. Side-chain parts run from the residue outwards. [ ]: non-standard residue; d: D form. The star is where a group is joined. Ttds = 1,13-diamino-4,7,10-trioxatridecan-succinamic acid, NCCCOCCOCCOCCCNC(=O)CCC(=O)*; DOTA(Ga) = O=C1CN2CCN3CCN(CC(=O)*)CCN(CC2)CC(=O)[O][Ga]([O]1)[O]C(=O)C3; DOTA(In) = O=C1CN2CCN3CCN(CC(=O)*)CCN(CC2)CC(=O)[O][In]([O]1)[O]C(=O)C3; DOTA(Lu) = O=C1CN2CCN3CCN(CC(=O)*)CCN(CC2)CC(=O)[O][Lu]([O]1)[O]C(=O)C3; NH(1-deoxy-D-glucityl) = OC[C@@H](O)[C@@H](O)[C@H](O)[C@@H](O)CN*; dE(AGLU) = D-glutamic acid bearing 1-amino-1-deoxy-D-glucitol; Pro(trans-4-NH2) = O=C([C@@H]1C[C@@H](N[*:3])CN1[*:1])[*:2]; DOTA = O=C(O)CN1CCN(CC(=O)O)CCN(CC(=O)*)CCN(CC(=O)O)CC1; 2Lut = 2,6-lutidylidene bridge between two thiols; Trp(5-Br) = N[C@@H](Cc1c[nH]c2ccc(Br)cc12)C(=O)O; Trp(5-Cl) = N[C@@H](Cc1c[nH]c2ccc(Cl)cc12)C(=O)O; Pyridine(2,6-diCH2) = c1cc(C[*:1])nc(C[*:2])c1; 2Lut″ = 2,6-lutidylidene linking two thiols; APAc = 4-amino-1-carboxymethylpiperidine; mXylylene = c1cc(C[*:1])cc(C[*:2])c1; LuDOTA = DOTA Lutetium(III) complex; Glutaryl = O=C(CCCC(=O)[*:2])[*:1]; AGLU = 1-amino-1-deoxy-D-glucitol; Cya = N[C@@H](CS(=O)(=O)O)C(=O)O; Hyp = O=C(O)[C@@H]1C[C@@H](O)CN1; Cysteamide = C(CS[*:3])N[*:1]; dGlu(AGLU) = not defined here; Suc = O=C(CCC(=O)[*:2])[*:1]; hSer = N[C@@H](CCO)C(=O)O; Api = NC1(C(=O)O)CCNCC1; Thp = NC1(C(=O)O)CCOCC1; Aib = CC(C)(N)C(=O)O

Experiments:
[1] = biological target: biotinylated extracellular domain of the human GIP receptor (bioGIPR) (human) (UniProt P48546); assay: SPR single cycle kinetics, bioGIPR captured on chip; category A: t1/2 >15 min
biotinylated extracellular domain of the human GIP receptor (bioGIPR) (human), sequence (P48546 24-138 limits assumed): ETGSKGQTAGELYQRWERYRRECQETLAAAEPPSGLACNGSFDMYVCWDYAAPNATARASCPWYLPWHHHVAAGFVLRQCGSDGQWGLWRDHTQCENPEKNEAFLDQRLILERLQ

[2] = biological target: human Gastric Inhibitory Peptide Receptor (human) (UniProt P48546); assay: FACS competition with GIP-057 on CHO-K1-hGIPR cells; pIC50 category A: >8.0
human Gastric Inhibitory Peptide Receptor (human), sequence (P48546 22-466 limits assumed): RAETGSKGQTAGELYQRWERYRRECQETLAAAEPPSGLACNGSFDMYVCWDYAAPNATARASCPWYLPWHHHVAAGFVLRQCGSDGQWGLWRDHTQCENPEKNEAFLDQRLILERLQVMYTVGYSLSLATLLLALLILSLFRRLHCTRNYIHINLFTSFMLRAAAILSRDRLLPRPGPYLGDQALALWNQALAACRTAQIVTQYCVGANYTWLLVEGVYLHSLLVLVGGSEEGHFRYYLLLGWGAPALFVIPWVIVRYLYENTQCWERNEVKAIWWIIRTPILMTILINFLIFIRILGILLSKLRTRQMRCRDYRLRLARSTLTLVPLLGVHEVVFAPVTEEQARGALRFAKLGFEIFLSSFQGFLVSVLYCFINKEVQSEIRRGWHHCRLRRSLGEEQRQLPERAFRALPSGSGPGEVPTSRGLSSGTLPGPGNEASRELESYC

[3] = biological target: biotinylated extracellular domain of the human GIP receptor (bioGIPR) (human) (UniProt P48546); assay: SPR single cycle kinetics, bioGIPR captured on chip; category A: pKD >9.0

| Binder | t1/2 [1] [min] | pIC50 [2] [pic50] | pKD [3] [pkd] |
| --- | --- | --- | --- |
| Ac-[Cya]W[Trp(5-Cl)][Hyp]E[dL]C[Aib]LI[Cysteamide] (linker (positions not given here) via Pyridine(2,6-diCH2); not fully specified (bridges); printed as Ac-Cya-Trp-5Clw-Hyp-Glu-leu-[Cys(2Lut)-Aib-Leu-Ile-AET]) [Ac-Cya-Trp-5Clw-Hyp-Glu-leu-[Cys(2Lut)-Aib-Leu-Ile-AET]] | > 15 | > 8 | > 9 |
| Suc-W[Trp(5-Cl)][Hyp]E[dL]C[Api](DOTA(In))LI[Cysteamide] (linker 6-10 via 2Lut; also: In complex of DOTA) [HO-Succinyl-Trp-5Clw-Hyp-Glu-leu-[Cys(2Lut)-Apc(InDOTA)-Leu-Ile-AET]] | > 15 | > 8 | > 9 |
| {AGLU-Glutaryl}-DW[Trp(5-Cl)][Pro(trans-4-NH2)]E[dL]C[Api](DOTA(Ga))LIC-{APAc-dE(AGLU)-NH2} (linker 7-11 via Pyridine(2,6-diCH2)) [AGLU-Glutar-Asp-Trp-5Clw-Tap-Glu-leu-[Cys(2Lut)-Apc(GaDOTA)-Leu-Ile-Cys]-APAc-glu(AGLU)-NH2] | > 15 | > 8 | > 9 |
| {DOTA-dE(AGLU)-APAc}-DW[Trp(5-Cl)][Hyp]E[dL]C[Thp]LIC-{APAc-dE(AGLU)-NH2} (linker 7-11 via Pyridine(2,6-diCH2)) [DOTA-glu(AGLU)-APAc-Asp-Trp-5Clw-Hyp-Glu-leu-[Cys(2Lut)-Thp-Leu-Ile-Cys]-APAc-glu(AGLU)-NH2] | > 15 | > 8 | > 9 |
| {AGLU-Glutaryl-APAc}-DW[Trp(5-Cl)][Pro(trans-4-NH2)]([Glutaryl-NH(1-deoxy-D-glucityl)])E[dL]C[Api](DOTA)LIC-{APAc-dE(AGLU)-NH2} (linker 7-11 via Pyridine(2,6-diCH2)) | > 15 | > 8 | > 9 |
| {AGLU-Glutaryl}-DW[Trp(5-Cl)][Hyp]E[dL]C[Thp]LIC-{APAc-dE(AGLU)-K(DOTA)-NH2} (linker 7-11 via Pyridine(2,6-diCH2)) [AGLU-Glutar-Asp-Trp-5Clw-Hyp-Glu-leu-[Cys(2Lut)-Thp-Leu-Ile-Cys]-APAc-glu(AGLU)-Lys(DOTA)-NH2] | > 15 | > 8 | > 9 |
| Suc-W[Trp(5-Cl)][Hyp]E[dL]C[Thp]LIC-{APAc-dGlu(AGLU)-Lys(DOTA)-NH2} (linker 6-10 via 2Lut; reading uncertain; also: printed as HO-Succinyl-Trp-5Clw-Hyp-Glu-leu-[Cys(2Lut)-Thp-Leu-Ile-Cys]-APAc-glu(AGLU)-Lys(DOTA)-NH2) [HO-Succinyl-Trp-5Clw-Hyp-Glu-leu-[Cys(2Lut)-Thp-Leu-Ile-Cys]-APAc-glu(AGLU)-Lys(DOTA)-NH2] | > 15 | > 8 | > 9 |
| DWXXEXCXLIC (AGLU-Glutar; 5Clw; Hyp; D-leu; Apc(InDOTA); 2Lut bridge Cys-Cys; APAc; D-glu(AGLU); C-term NH2) [AGLU-Glutar-Asp-Trp-5Clw-Hyp-Glu-leu-[Cys(2Lut)-Apc(InDOTA)-Leu-Ile-Cys]-APAc-glu(AGLU)-NH2] | > 15 | > 8 | > 9 |
| Ac-[hSer]W[Trp(5-Br)][Hyp]E[dL]C[Thp]LIC-NH2 (linker 7-11 via Pyridine(2,6-diCH2); SMILES CC[C@H](C)[C@@H]1NC(=O)[C@H](CC(C)C)NC(=O)C2(CCOCC2)NC(=O)[C@@H](NC(=O)[C@@H](CC(C)C)NC(=O)[C@H](CCC(=O)O)NC(=O)[C@@H]2C[C@@H](O)CN2C(=O)[C@H](Cc2c[nH]c3ccc(Br)cc23)NC(=O)[C@H](Cc2c[nH]c3ccccc23)NC(=O)[C@H](CCO)NC(C)=O)CSCc2cccc(n2)CSC[C@@H](C(N)=O)NC1=O) [Ac-Hse-Trp-5Brw-Hyp-Glu-leu-[Cys(2Lut)-Thp-Leu-Ile-Cys]-NH2] | > 15 | > 8 | > 9 |

Second part, the binder after the results:

| t1/2 [1] [min] | pIC50 [2] [pic50] | pKD [3] [pkd] | Binder |
| --- | --- | --- | --- |
| > 15 | > 8 | > 9 | {AGLU-Glutaryl}-DW[Trp(5-Cl)][Pro(trans-4-NH2)]E[dL]C[Api](DOTA)LIC-{APAc-dE(AGLU)-NH2} (linker 7-11 via Pyridine(2,6-diCH2)) [AGLU-Glutar-Asp-Trp-5Clw-Tap-Glu-leu-[Cys(2Lut)-Apc(DOTA)-Leu-Ile-Cys]-APAc-glu(AGLU)-NH2] |
| > 15 | > 8 | > 9 | {AGLU-Glutaryl}-DW[Trp(5-Cl)][Pro(trans-4-NH2)]E[dL]C[Api](DOTA(In))LIC-{APAc-dE(AGLU)-NH2} (linker 7-11 via Pyridine(2,6-diCH2)) [AGLU-Glutar-Asp-Trp-5Clw-Tap-Glu-leu-[Cys(2Lut)-Apc(InDOTA)-Leu-Ile-Cys]-APAc-glu(AGLU)-NH2] |
| > 15 | > 8 | > 9 | {AGLU-Glutaryl}-DW[Trp(5-Cl)][Hyp]E[dL]C[Api](DOTA(Lu))LIC-{APAc-dE(AGLU)-NH2} (linker 7-11 via Pyridine(2,6-diCH2)) [AGLU-Glutar-Asp-Trp-5Clw-Hyp-Glu-leu-[Cys(2Lut)-Apc(LuDOTA)-Leu-Ile-Cys]-APAc-glu(AGLU)-NH2] |
| > 15 | > 8 | > 9 | W[Trp(5-Cl)][Pro(trans-4-NH2)]E[dL]C[Api]LIC-{APAc-dE(AGLU)-K(DOTA)-NH2} (linker 6-10 via 2Lut; not fully specified (N-terminus); printed as HO-Succinyl-Trp-5Clw-Tap-Glu-leu-[Cys(2Lut)-Apc-Leu-Ile-Cys]-APAc-glu(AGLU)-Lys(DOTA)-NH2) [HO-Succinyl-Trp-5Clw-Tap-Glu-leu-[Cys(2Lut)-Apc-Leu-Ile-Cys]-APAc-glu(AGLU)-Lys(DOTA)-NH2] |
| > 15 | > 8 | > 9 | DWXXEXCXLIC (AGLU-Glutar; 5Clw; Hyp; D-leu; Apc(DOTA); 2Lut bridge Cys-Cys; APAc; D-glu(AGLU); C-term NH2) [AGLU-Glutar-Asp-Trp-5Clw-Hyp-Glu-leu-[Cys(2Lut)-Apc(DOTA)-Leu-Ile-Cys]-APAc-glu(AGLU)-NH2] |
| > 15 | > 8 | > 9 | {LuDOTA-Ttds}-DW[Trp(5-Cl)]PE[dL]C[Aib]LI[Cysteamide] (linker 7-11 via mXylylene) [LuDOTA-Ttds-Asp-Trp-5Clw-Pro-Glu-leu-[Cys(3MeBn)-Aib-Leu-Ile-AET]] |
| > 15 | > 8 | > 9 | {AGLU-Glutaryl}-DW[Trp(5-Cl)][Pro(trans-4-NH2)]E[dL]C[Api](DOTA(Lu))LIC-{APAc-dE(AGLU)-NH2} (linker 7-11 via Pyridine(2,6-diCH2)) [AGLU-Glutar-Asp-Trp-5Clw-Tap-Glu-leu-[Cys(2Lut)-Apc(LuDOTA)-Leu-Ile-Cys]-APAc-glu(AGLU)-NH2] |
| > 15 | > 8 | > 9 | Ac-SW[Trp(5-Cl)][Hyp]E[dL]C[Thp]LIC-NH2 (linker 7-11 via Pyridine(2,6-diCH2); SMILES CC[C@H](C)[C@@H]1NC(=O)[C@H](CC(C)C)NC(=O)C2(CCOCC2)NC(=O)[C@@H](NC(=O)[C@@H](CC(C)C)NC(=O)[C@H](CCC(=O)O)NC(=O)[C@@H]2C[C@@H](O)CN2C(=O)[C@H](Cc2c[nH]c3ccc(Cl)cc23)NC(=O)[C@H](Cc2c[nH]c3ccccc23)NC(=O)[C@H](CO)NC(C)=O)CSCc2cccc(n2)CSC[C@@H](C(N)=O)NC1=O) [Ac-Ser-Trp-5Clw-Hyp-Glu-leu-[Cys(2Lut)-Thp-Leu-Ile-Cys]-NH2] |
| > 15 | > 8 | > 9 | Ac-DW[Trp(5-Cl)][Hyp][hSer][dL]C[Thp]LIC-NH2 (linker 7-11 via Pyridine(2,6-diCH2); SMILES CC[C@H](C)[C@@H]1NC(=O)[C@H](CC(C)C)NC(=O)C2(CCOCC2)NC(=O)[C@@H](NC(=O)[C@@H](CC(C)C)NC(=O)[C@H](CCO)NC(=O)[C@@H]2C[C@@H](O)CN2C(=O)[C@H](Cc2c[nH]c3ccc(Cl)cc23)NC(=O)[C@H](Cc2c[nH]c3ccccc23)NC(=O)[C@H](CC(=O)O)NC(C)=O)CSCc2cccc(n2)CSC[C@@H](C(N)=O)NC1=O) [Ac-Asp-Trp-5Clw-Hyp-Hse-leu-[Cys(2Lut)-Thp-Leu-Ile-Cys]-NH2] |
